Data: patent US20120101037A1 (Hoffmann-La Roche, published 2012)
Non-standard residues stand in square brackets, D forms with d. Groups on a side chain read outwards from the residue. Primed or numbered codes have the meaning given here. *: point of attachment. dPhe(3,5-F2) = N[C@H](Cc1cc(F)cc(F)c1)C(=O)O; dPhe(3-Cl) = N[C@H](Cc1cccc(Cl)c1)C(=O)O; dPhe(4-Cl) = N[C@H](Cc1ccc(Cl)cc1)C(=O)O; dPhe(2-Cl) = N[C@H](Cc1ccccc1Cl)C(=O)O; dPhe(3-F) = N[C@H](Cc1cccc(F)c1)C(=O)O; Desaminotyrosyl = O=C(CCc1ccc(O)cc1)*; dPhe(2-F) = N[C@H](Cc1ccccc1F)C(=O)O; dPhe(3,4,5-F3)′ = not defined here; Hydrocinnamoyl = O=C(CCc1ccccc1)*; SSA = succinimidyl succinamide

T1: human GIPR (glucose-dependent insulinotropic polypeptide receptor) (human, UniProt P48546 22-466)
T1 sequence (looked up): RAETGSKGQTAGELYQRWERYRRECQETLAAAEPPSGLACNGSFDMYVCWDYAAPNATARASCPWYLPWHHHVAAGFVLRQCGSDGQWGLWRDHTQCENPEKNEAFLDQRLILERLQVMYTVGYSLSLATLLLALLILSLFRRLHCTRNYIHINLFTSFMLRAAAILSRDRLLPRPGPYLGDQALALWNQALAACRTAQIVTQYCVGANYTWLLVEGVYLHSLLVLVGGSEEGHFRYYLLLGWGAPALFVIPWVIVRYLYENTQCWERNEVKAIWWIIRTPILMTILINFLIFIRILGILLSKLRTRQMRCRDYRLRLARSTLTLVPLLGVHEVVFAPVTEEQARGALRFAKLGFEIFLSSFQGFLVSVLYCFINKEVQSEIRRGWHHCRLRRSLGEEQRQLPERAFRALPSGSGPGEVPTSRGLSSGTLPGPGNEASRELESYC

B1: Ac-(D)-3-Pya-Ala-Glu-Gly-Thr-Phe-Ile-Ser-Asp-Tyr-Ser-Ile-Ala-Met-Asp-Lys-Ile-His-Gln-Gln-Asp-Phe-Val-Asn-Trp-Leu-Leu-Ala-Gln-Lys-NH2 (peptide)
peptide: AAEGTFISDYSIAMDKIHQQDFVNWLLAQK
modifications: position 1 is acetylated D-3-pyridylalanine (Ac-(D)3Pya); C-terminal amide (NH2)

Target: T1, human GIPR (glucose-dependent …)
Assay: cell-based or functional assay

Binder	% activation of cAMP	EC50 (nMol), cAMP
Ac-[dY]AEGTFISDYSIAMDAIHQQDFVNWLLAQK([SSA-PEGm 30,000])-NH2	101%	0.0017 nmol
Ac-[dPhe(3-F)]AEGTFISDYSIAMDKIHQQDFVNWLLAQK-NH2 (also: 1:2 TFA salt)	98%	0.058 nmol
[Hydrocinnamoyl]AEGTFISDYSIAMDKIHQQDFVNWLLAQK-NH2 (also: 1:2 TFA salt)	101%	0.797 nmol
B1	102%	0.08 nmol
Ac-[dY]AEGTFISDYSIAMDAIHQQDFVNWLLAQK-NH2 (also: 1:1 TFA salt)	100%	0.0005 nmol
Ac-[dPhe(3-Cl)]AEGTFISDYSIAMDKIHQQDFVNWLLAQK-NH2 (also: 1:2 TFA salt)	106%	0.072 nmol
Ac-[dY]AEGTFISDYSIAMDAIHQQDFVNWLLAQK([SSA-PEGm 12,000])-NH2	100%	0.0022 nmol
Ac-YAEGTFISDYSIAMDKIHQQDFVNWLLAQK-NH2 (also: 1:2 TFA salt)	100%	
Ac-[dF]AEGTFISDYSIAMDKIHQQDFVNWLLAQK-NH2 (also: 1:2 TFA salt)	102%	0.685 nmol
Ac-[dPhe(3,5-F2)]AEGTFISDYSIAMDKIHQQDFVNWLLAQK-NH2 (also: 1:2 TFA salt)	99.6%	0.003 nmol
Ac-[dPhe(2-Cl)]AEGTFISDYSIAMDKIHQQDFVNWLLAQK-NH2 (also: 1:2 TFA salt)	104%	0.121 nmol
Ac-[dY]AEGTFISDYSIAMDAIHQQDFVNWLLAQK([SSA-PEGm 20,000])-NH2	102%	0.0049 nmol
Ac-[dPhe(2-F)]AEGTFISDYSIAMDKIHQQDFVNWLLAQK-NH2 (also: 1:2 TFA salt)	99.8%	0.0075 nmol
[Desaminotyrosyl]AEGTFISDYSIAMDKIHQQDFVNWLLAQK-NH2 (also: 1:2 TFA salt)	103%	0.095 nmol
Ac-[dPhe(4-Cl)]AEGTFISDYSIAMDKIHQQDFVNWLLAQK-NH2 (also: 1:2 TFA salt)	106%	0.025 nmol
Ac-[dY]AEGTFISDYSIAMDKIHQQDFVNWLLAQK-NH2 (also: 1:2 TFA salt)	102%	0.0007 nmol
Ac-[dPhe(3,4,5-F3)′]AEGTFISDYSIAMDKIHQQDFVNWLLAQK-NH2 (also: 1:2 TFA salt)	100%	0.104 nmol
Ac-[dW]AEGTFISDYSIAMDKIHQQDFVNWLLAQK-NH2 (also: 1:2 TFA salt)	102%	0.1 nmol
